# From the nanobody polyreactivity screen of Harvey et al. (2022)
# Assay: yeast display, Sf9 membrane polyspecificity reagent, FACS + sequencing; frameworks hold sequencing errors
# Summary of the method: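 Galactose induction of a Saccharomyces cerevisiae BJ5465 synthetic nanobody display library ran 36–48 hours. The cells were then stained for 1 hour at 4 °C with 10% biotinylated, detergent-solubilized Sf9 membrane reagent, pulled down on streptavidin microbeads and FACS-sorted into low and high (top ~1%) gates on expression and reagent-binding fluorescence. Labels for polyreactivity follow the gate of origin.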
row,Sequence,polyreactivity (PSR sort gate)
1,QVQLVESGGGLVPAGGSLRLSCAASGRTFFPYAMAWYRQAPGKEREFVAAITWSGGSTTYADSVKGRFTISRDNAKNTVYLQMNSLKPEDTAVYYCNAGRRRSYSYDYWGQGTQVTVSS,low polyreactivity
2,QVQLVESGGGLVPAGGSLRLSCAASGRTFPYYDMGWYRQAPGKERELVAAITSGGTTNYADSVKGRFTISRDNAKNTVYLQMNSLKPEDTAVYYCAAGSPWYYFSSYGYWGQGTQVTVSS,low polyreactivity
3,QVQLVESGGGLVPAGGSLRLSCAASGRTFWIYAMGWYRQAPGKERELVASIRWSTGNTNYADSVKGRFTISRDNAKNTVYLQMNSLLPEDTAVYYCNARRRWRGGPTYIYWGQGTQVTVSS,high polyreactivity
4,QVQLVESGGGLVPAGGSLRLSCAASGRTFYRYARGWYRKAHGKERELVASITRDGRTNYADSVKGSFTISRDNAKNTVYLQMNSLKPEDTAFYYCNAKLKITHSSSDYWGQGTQVTVSS,high polyreactivity
5,QVQLVESGGGLVPAGGSLRLSCAASGSIFEGNAMGWYRQAPGKERELVAAISTTGGITYYADSVKGRFTISRDNAKNTVYLQMNSLKPEETAVYYCAADPSQPRIDSSNYDYWGQGTQVTVSS,low polyreactivity
6,QVQLVESGGGLVPAGGSLRLSCAASGSTFIAYTRGWYRKAPGKERELVAAISGTGGTTYADSVKGRFTISRDNAKNTVYLQMNSLKPEDTAVYYCAAQYRYTYWGQATQVTVSS,low polyreactivity
7,QVQLVESGGGLVPAGGSLRLSCAASGYIFDYNAMGWYRQAPGKERELVAAITFRDGSTYADSVKGRFTISRDNAKNTVYLQMNSLKPEDTAVYYCNRRSQVHSHSKHDYWGQGTQVTVSS,low polyreactivity
8,QVQLVESGGGLVPAGGSLRLSSAASGRIFVRNAMGWYRQAPGKERELVAAITRTGASTYYADSVKGRFTISRDNEKNTVYLQMNSLKPEDTAVYFFAAVWGWPYWVYRYDYWGQGTQVTVSS,high polyreactivity
9,QVQLVESGGGLVPAGGSLRLSWAASGRIFPRNTMGWYRQAPGKERELVAAISVSGGSTYYADSVKGRFTISRDNAKNTVYLQMNSLKPEDTAVYYSAARSARLEYYYWGQGTQVTVSS,high polyreactivity
10,QVQLVESGGGLVQAAGSLRLSCAASGGTFWFYDMGWYRQAPGKERELVAAINSDGSTYYADSVKGRFTISRDNAKNTVYLQMNSLKPEDTAVYYCAVDQTYVGEGLSEVDVGYWGQGTQVTVSS,low polyreactivity
11,QVQLVESGGGLVQAAGSLRLSCAASGITFVTYDRGWYRQAPGKEWELVAAISRSGVRTYYADSVKWRFTISRDNAKNTVYLQMNSLKPEDTAVYYCAAERKNKYDYWGLGTQVTVSS,high polyreactivity
12,QVQLVESGGGLVQAAGSLRLSCAASGNTFRWYVMGWYRQAPGKERELVAAITSSGSNTYYADSVKGRFTISRDNAKNTVYLQMNSLKPEDTAVYYCAARNYGPYDYWGQGTQVTVSS,low polyreactivity
13,QVQLVESGGGLVQAAGSLRLSCAASGRTFGQYVMGGSRQAPGKERELVAAISGIGGSTYYADSVKGRFTISRDNAKNTVYLQMNSLIPDDTAVYYCAVELYWYPGYDYWGQGTQVTVSS,low polyreactivity
14,QVQLVESGGGLVQAAGSLRLSCAASGSIFGPNAMGWYRQAPGKERELVASITLSGGSTYYADSVKGRFTISRDNAKNNVYLQMNSLKPVDTAVYYCNADLLPADAPLWVTGGDYWGQGTQVTVSS,low polyreactivity
15,QVQLVESGGGLVQAAGSLRLSCAASGSIFVRNAMGWYRQAPGKEREFVAAISWRGGTYYADSVKGRFTISRDNAKNTVYLQMNSLKPEDSAVYYCAARLYPTPGNGALGKTAWVYYWGQGTQVTVSS,low polyreactivity
16,QVQLVESGGGLVQAAGSLRLSCAASGSIFYNYAMGWYRQAPGKERELVAAITSGGITYYADSVKGRFTISRDNAKNTVYLQMNSLKPEYTAVYYCAAESLTGYGHYDYWGQGTQVTVSS,low polyreactivity
17,QVQLVESGGGLVQAAGSLRLSFAASGGIFSYYVMGWYRQAPGKEREFVASITQRGRTYYADSVKGRFTISRDNAKNTVYLQMNSLKPEDTAVYYCAAGIYAFRRHREEYDYWGQGTQVTVSS,high polyreactivity
18,QVQLVESGGGLVQAAGSLRLSYAASGSTFVYNGMGSYRQAPAKERELVATISSTGSTNYADSVKGRFTISRDNAKNTVYLQMNSLKPEDTAVYYCATEYITYRAYDYWGQGTQVTVSS,low polyreactivity
19,QVQLVESGGGLVQAGAILRLSCAASGYIFVSYYLGWYRQAPGKEREVVAAISWRGGSTFYADSVKGRFTISRDNAKNTVYLQMNSLKPEDTAVFYCAVDDWLDWLFADFGYWGQGTQVTVSS,low polyreactivity
20,QVQLVESGGGLVQAGASLRLSCAASGFIFGGNAMGWYRQAPGKERELVAAISTTGGRTYYADSVKGRFTISRDNAKNTVYLQMNSRKPEDTAVYYCNAGYDSYCRYYWYWYSFNYWGQGTQVNVSS,high polyreactivity
21,QVQLVESGGGLVQAGASLRLSCAASGFNFDTNTIGWYRQAPGKERELVAVITRRGGRTYDADSVKGRFTISRDNAKNRVYLQMNSLKPVDTAVYYFNSVSYGQYGWGEGTQVTVSS,high polyreactivity
22,QVQLVESGGGLVQAGASLRLSCAASGFTFTPYAMGWYRQAPGKERELVAGITSGVGRKYADSVKGRFTISRDNAKNTVYLQMNSLKPEDTAVYFCAARYDHWGQGTQVTVSS,high polyreactivity

row,Sequence,polyreactivity (PSR sort gate)
1,QVQLVESGGGLVQAGASLRLSCAASGNIFGLYAMGWYRPAPGKERELVAAISDGVSTNYADSVKGRFTISRDNAKITVYLQMNSLKPEDTAVYYCAADQEGYGNWDSEYDYWGQVTQVTVSS,low polyreactivity
2,QVQLVESGGGLVQAGASLRLSCAASGNILVGNDMGWYRQAPWKERELVAAISSGDTTSYADSVKGRFTISRDNAKNTVYLQMNSLKPEDTAVYYCAVDRSLSPFAYDYWGQGTQVTVSS,low polyreactivity
3,QVQLVESGGGLVQAGASLRLSCAASGRIFRYNAMGWYRQAPGKERELVAAISSGGSRNYADSVKGRFTTSRDNSKNTVYLQMNSLKPEDTAVYYCNAESVHRYPGWGYDYWGHGTQVTVSS,low polyreactivity
4,QVQLVESGGGLVQAGASLRLSCAASGRNFHTYGMGWYRQAPGKESELVAAITWTGGSTYYADSVKGRFTISRDNAKNTVYLQMNSLKPEDTAVYYCAADYPRDIIGSMDYWGQGTQVSVSS,low polyreactivity
5,QVQLVESGGGLVQAGASLRLSCAASGRTFRYYAMGWYRQEPGKERELVAAITSGGSTYYADSVKGRFTISRDNAKKTVYLQMNSLKPEVTAVYYCAAVPAGLWGTYPQFRYGYWGQGTQVTVSS,high polyreactivity
6,QVQLVESGGGLVQAGASLRLSCAASGRTFWKYVMGWYRQAPGKDRLLVAVISRPAGSTYYADSVKGRFTISRDNAKNTVYLQMNSLKPEDTAVYYCAKRPKNKPVLGDFDHWGQGTQVTVSS,low polyreactivity
7,QVQLVESGGGLVQAGASLRLSCAASGSIFGVNAMGWYRQAPGKERELVAAISVSGGRTYYADSVKGRFTISRDNAKNTVYLLMNSLKPEDTAVYYCAATTYIWPYDYWGQGTQVTVSS,low polyreactivity
8,QVQLVESGGGLVQAGASLRLSCAASGSIFRRNAMGWYRQAPGKERELVAAISYRGGSTNYADSVKGRFTISRDNAKNTVYLQMNSLKPEDTAVYYCAAKIYRSSGQGMDYWGQGTQVTVSS,low polyreactivity
9,QVQLVESGGGLVQAGASLRLSCAASGSIFVRNAMGWYRQAPGKERELVAAISKRGTSTYFADSVKGRFTISRDNAKNTVYLQMNSLKPEDTAVYYCNAVLSNSRSYLIRLDYWGQGTQVTVSS,high polyreactivity
10,QVQLVESGGGLVQAGASLRLSCAASGSISKSYAMGWYRQAPGKERELVAAMSWRGGSTYADSVKGRFTISRDNAKNTVYLLMNCLKPEDSAVYYCAATNYGTFWGGQSERYDYWGQGTQVTVSS,low polyreactivity
11,QVQLVESGGGLVQAGASLRLSCAASGSTFDYYAMGWSRQAPGKELELVDAISRGGSTNYADSVKGRFTISRDNAKNSVYLQMNILKPEDTAVYYCAAAPTYRWHDGYWGQGTQVTVSS,low polyreactivity
12,QVQLVESGGGLVQAGASLRLSCAPSASIFSYNAMGWYSQAPGKERELVAAIDWSGGSTYYADSVKGRFTISRDNAKNTVYLQMNSLKPEDTEVYYCNAVGVFYYSYHYHQSDYWGQGTQVTVSS,low polyreactivity
13,QVQLVESGGGLVQAGASLRLSCAPSGSTFYPNSMAWYRQSPGKERHLVDAITSGGSTYYADSVKGRFTISRDNSKNTVYLQMNSLKPEDTAVYYCAAQRRYHQDTTIAPGNYYYWGQGTQVTVSS,low polyreactivity
14,QVQLVESGGGLVQAGASLRLSCASSGSISKSYAMGWYRQAPGKERELVAAISWRGGSTYADSVKGRFTISRDNAKNTVYLQMNSLKPVDTAVYYCAATNYGTFWVGQSERYDYWGQGTEVTVSS,low polyreactivity
15,QVQLVESGGGLVQAGASLRLSCPPSGFIFSLYAMGWYSQAPGKERELVADISWGDGTTYYADSVKGRFTISRDNAKNTVYLQMNSLKPEDTAVYYCAADSVSNWYWFNYWGQGTQVTVSS,high polyreactivity
16,QVQLVESGGGLVQAGCNLRISCAASGSTFTLYAMGWYRQAPGKERELVAGITYSGGSTFYADSVKGRFTISRDNAKNTVYLQMKSVKPEDTAVYFCGDVYVPYYWLGRSRGLYYWGQGTQVTVSS,high polyreactivity
17,QVQLVESGGGLVQAGCRLRLSCAASGITFYSYAMGWYRQAPGKERELVAAITLTGGTTYYADSVKGRFTISRDNAKNTVYLQMNSLKPEDTAVSYCAAQYWWWSRFEYDSWGQGTQVTVSS,low polyreactivity
18,QVQLVESGGGLVQAGCSLLLSCAASGRLFSLNAMGWYRQAPGKERELVAAITRSAASTHYADSEKGRFTISRDNAKNTVYLQMNSLKPEDTAVYYCAARFWYDYRHYDYWGQGTEVTVSS,low polyreactivity
19,QVQLVESGGGLVQAGCSLRISCAASGRTFSVYTMGWYRQAPGKERELVAAIRGRGGSTYYADSVKGRFTISRDNAKIPVYLQMNSLKPEDTAVYYCAARASIFGATFDYWGQGTQVTVSS,high polyreactivity
20,QVQLVESGGGLVQAGCSLRISCAASGSTFYPYAMGWYRQAPGKERELVAAISSGGSTYYADSVKGRFTISRDNAKNTVYLQMNSVKPEDTAVYYCAADFYYAYYWGQGTQVTVSS,low polyreactivity
21,QVQLVESGGGLVQAGCSLRLICAASGFTFGRNAMGWYRQAPGKEREFVADISGSVGSTYYADSVKGRFTISRDNAKNTVYLQMNSLKPEDTAVYYCAADTLYTRWEFDYWGQGTLVTVSS,high polyreactivity
